{
  "source": "patent US20050064392A1",
  "about": "(TRUSTEES OF THE UNIVERSITY OF PENNYLVANIA, published 2005)",
  "binders": {"B1": {"name": "HIV-2/VCP gp120 (other)", "chain": "KQFVTVFYGIPAWRNASIPLFCATKNRDTWGTIQCLPDNDDYQEIALNVTEAFDAWNNTVTEQAVEDVWNLFETSIKPCVKLTPLCVAMNCTRNMTTSTGTTDTQNITIINDTSPCVRADNCTGLKEEEMVDCQFNMTGLERDKRKQYTEAWYSKDVICDNNTSSRSKCYMNHCNTSVITESCDKHYWDAMRFRYCAPPGFALLRCNDTNYSGFAPNCSKVVAATCTRMMETQSSTWFGFNGTRAENRTYIYWHGKNNRTIISLNNFYNLTMHCKRPGNKTVLPIMSGFKFHSKPVINKKPRQAWCWFKGEWKEAMQEVKETLAKHPRYKGNRSRTENIKFKAPGRGSDPEAAYMWTNCRGEFLYCNMTWFLNWVDNRTGQKQRNYAPCHIRQIINTWHRVGKNVYLPPREGELTCNSTVTSIIANIDTGDQTDITFSAEVAELYRLELGDYKLVEITPIGFAPTSVKRYSSAHQRHTR", "notes": "also called gp120 Env of HIV-2/VCP"}},
  "target": "T1, CXCR4 (UniProt P61073 1-352)",
  "T1 construct": "whole, on cells; also called X4",
  "T1 sequence (P61073 whole entry)": "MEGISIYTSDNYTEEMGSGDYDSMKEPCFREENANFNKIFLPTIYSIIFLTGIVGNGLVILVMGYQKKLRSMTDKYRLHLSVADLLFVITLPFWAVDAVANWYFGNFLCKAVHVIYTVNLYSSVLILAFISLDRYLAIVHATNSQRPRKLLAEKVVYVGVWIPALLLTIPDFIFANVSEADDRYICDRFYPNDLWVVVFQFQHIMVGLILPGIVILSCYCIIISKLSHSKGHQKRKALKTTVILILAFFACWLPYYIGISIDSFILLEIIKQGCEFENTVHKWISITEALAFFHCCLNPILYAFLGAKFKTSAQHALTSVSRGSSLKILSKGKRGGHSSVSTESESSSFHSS",
  "assay": "western blot binding assay on CXCR4-transfected cells",
  "data": [
    {"binder": "B1", "values": [
      {"measurement": "binding result", "value": "binds"}
    ]}
  ]
}
